Data set [1] has as its target HA-tagged NRASQ61R (HA-NRASQ61R).
In data set [2] the target is HA-tagged wild-type NRAS (HA-NRASWT).
Data set [3] has as its target HA-NRASQ61R/S89A.
Data set [4] concerns the target HA-NRASS89A.

Data on 3 proteins can be found in US20200199081.

B1: Flag-tagged STK19D89N (protein)
chain: MQKWFSAFDDAIIQRQWRANPSRGGGGVSFTKEVDTNVATGAPPRRQRVPGRACPWREPIRGRRGARPGGGDAGGTPGETVRHCSAPENPIFRFSSLHSYPFPGTIKSRDMSWKRHHLIPETFGVKRRRKRGPVESDPLRGEPGSARAAVSELMQLFPRGLFEDALPPIVLRSQVYSLVPDRTVADRQLKELQEQGEIRIVQLGFDLDAHGIIFTEDYRTRVCDCVLKACDGRPYAGAVQKFLASVLPACGDLSFQQDQMTQTFGFRDSEITHLVNAGVLTVRDAGSWWLAVPGAGRFIKYFVKGRQAVLSMVRKAKYRELLLSELLGRRAPVVVRLGLTYHVHDLIGAQLVDCISTTSGTLLRLPET
As for B1, the “in vitro kinase assay, phosphorylation of NRAS” value (“in vitro kinase assay … of NRAS” below) in data set [1] and in data set [2] was “phosphorylation of purified recombinant NRAS was enhanced by STK19D89N to a higher extent than by STK19WT” throughout.

B2: Flag-tagged kinase-dead STK19K317P (protein)
chain: MQKWFSAFDDAIIQRQWRANPSRGGGGVSFTKEVDTNVATGAPPRRQRVPGRACPWREPIRGRRGARPGGGDAGGTPGETVRHCSAPEDPIFRFSSLHSYPFPGTIKSRDMSWKRHHLIPETFGVKRRRKRGPVESDPLRGEPGSARAAVSELMQLFPRGLFEDALPPIVLRSQVYSLVPDRTVADRQLKELQEQGEIRIVQLGFDLDAHGIIFTEDYRTRVCDCVLKACDGRPYAGAVQKFLASVLPACGDLSFQQDQMTQTFGFRDSEITHLVNAGVLTVRDAGSWWLAVPGAGRFIKYFVKGRQAVLSMVRKAPYRELLLSELLGRRAPVVVRLGLTYHVHDLIGAQLVDCISTTSGTLLRLPET
Regarding B2, the “phosphorylated serine levels in NRAS (immunoblot)” value in data set [1] is recorded as “The upregulation of phosphorylated serine levels in NRAS was also diminished by overexpression of a kinase-dead STK19 K317P mutant”.

B3: Flag-tagged STK19 wild type (STK19-Flag) (protein)
chain: MQKWFSAFDDAIIQRQWRANPSRGGGGVSFTKEVDTNVATGAPPRRQRVPGRACPWREPIRGRRGARPGGGDAGGTPGETVRHCSAPEDPIFRFSSLHSYPFPGTIKSRDMSWKRHHLIPETFGVKRRRKRGPVESDPLRGEPGSARAAVSELMQLFPRGLFEDALPPIVLRSQVYSLVPDRTVADRQLKELQEQGEIRIVQLGFDLDAHGIIFTEDYRTRVCDCVLKACDGRPYAGAVQKFLASVLPACGDLSFQQDQMTQTFGFRDSEITHLVNAGVLTVRDAGSWWLAVPGAGRFIKYFVKGRQAVLSMVRKAKYRELLLSELLGRRAPVVVRLGLTYHVHDLIGAQLVDCISTTSGTLLRLPET
For the protein B3, the “in vitro kinase assay … of NRAS” value in data set [3] is “mutation of S89 to alanine (S89A) abolished phosphorylation of NRASWT and NRASQ61R”. Moreover, the “in vitro kinase assay … of NRAS” value in data set [4] was “mutation of S89 to alanine (S89A) abolished phosphorylation of NRASWT and NRASQ61R”. In data set [2], the “in vitro kinase assay, NRAS preloaded with GDP, GTP or GTPγS” value is “a higher STK19-induced phosphorylation of the GTP- and GTPγS-loaded NRAS than GDP-loaded NRAS”; the “serine phosphorylation of NRAS (immunoblot after NRAS immunoprecipitation, HPMs)” value is “only a marginal increase in phosphorylation of NRASWT was detected”.
